Consider five sequences from PMC8989545.

For one data set, the target named is T1, PTK7 (on HCT116 cells) (UniProt Q13308).
T1 sequence: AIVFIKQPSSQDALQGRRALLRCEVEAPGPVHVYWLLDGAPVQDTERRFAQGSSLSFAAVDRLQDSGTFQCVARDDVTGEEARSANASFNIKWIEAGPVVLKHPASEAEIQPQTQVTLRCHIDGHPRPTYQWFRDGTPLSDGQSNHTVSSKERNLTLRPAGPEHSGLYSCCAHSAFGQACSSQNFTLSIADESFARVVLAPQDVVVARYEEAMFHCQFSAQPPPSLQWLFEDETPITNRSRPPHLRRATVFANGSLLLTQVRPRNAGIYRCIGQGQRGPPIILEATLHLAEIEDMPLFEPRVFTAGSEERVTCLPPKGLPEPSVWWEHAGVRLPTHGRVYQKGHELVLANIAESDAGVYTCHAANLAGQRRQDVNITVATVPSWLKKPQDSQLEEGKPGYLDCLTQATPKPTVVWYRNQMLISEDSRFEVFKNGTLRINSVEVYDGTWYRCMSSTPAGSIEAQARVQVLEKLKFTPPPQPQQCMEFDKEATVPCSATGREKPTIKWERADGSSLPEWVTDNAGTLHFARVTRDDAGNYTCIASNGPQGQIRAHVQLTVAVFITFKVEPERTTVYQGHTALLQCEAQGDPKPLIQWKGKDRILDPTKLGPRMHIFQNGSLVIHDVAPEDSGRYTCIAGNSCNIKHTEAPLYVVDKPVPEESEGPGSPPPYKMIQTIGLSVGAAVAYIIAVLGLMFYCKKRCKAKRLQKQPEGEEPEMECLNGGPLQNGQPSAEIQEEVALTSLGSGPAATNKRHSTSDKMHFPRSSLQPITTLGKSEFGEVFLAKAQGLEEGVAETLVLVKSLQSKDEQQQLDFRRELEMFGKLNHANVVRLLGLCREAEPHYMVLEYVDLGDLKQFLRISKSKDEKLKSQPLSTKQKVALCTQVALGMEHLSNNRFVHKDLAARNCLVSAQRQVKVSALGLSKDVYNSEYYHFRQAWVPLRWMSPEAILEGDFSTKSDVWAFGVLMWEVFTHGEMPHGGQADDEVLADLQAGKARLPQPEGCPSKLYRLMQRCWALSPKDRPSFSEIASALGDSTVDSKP
As to the kind of experiment: flow cytometry on HCT116 cells. The conditions noted are these: live cells, PTK7 inferred, HSA beads: DPBS + 5 mM Mg2+, room temperature, 1 h, beads blocked with BSA/yeast tRNA, 4.5 g/L glucose, 5 mM MgCl2, 0.1 mg/ml yeast tRNA, 1 mg/ml …. In general terms: In flow cytometry, cells or beads pass a laser one at a time.

The target of data set [1] is human serum albumin (HSA) (Homo sapiens) (UniProt P02768). As to the kind of experiment: flow cytometry on HSA-coated beads. The conditions noted are these: HSA beads: DPBS + 5 mM Mg2+, room temperature, 1 h, beads blocked with BSA/yeast tRNA, cells: DPBS, 4.5 g/L glucose, 5 mM MgCl2, 0.1 mg/ml yeast tRNA, 1 mg/ml ….
The target in a further data set is T2, EpCAM (on HCT116 cells) (UniProt P16422).
T2 sequence: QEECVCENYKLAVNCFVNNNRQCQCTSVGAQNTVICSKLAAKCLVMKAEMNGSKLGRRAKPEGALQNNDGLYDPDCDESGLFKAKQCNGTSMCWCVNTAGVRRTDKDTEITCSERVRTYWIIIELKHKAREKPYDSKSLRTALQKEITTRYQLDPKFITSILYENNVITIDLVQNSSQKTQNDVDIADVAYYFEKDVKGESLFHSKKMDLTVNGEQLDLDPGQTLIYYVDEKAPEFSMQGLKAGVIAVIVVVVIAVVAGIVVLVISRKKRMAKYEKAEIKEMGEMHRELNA
The data set can be described thus: flow cytometry on HCT116 cells. Particulars: live cells, EpCAM inferred, HSA beads: DPBS + 5 mM Mg2+, room temperature, 1 h, beads blocked with BSA/yeast tRNA, 4.5 g/L glucose, 5 mM MgCl2, 0.1 mg/ml yeast tRNA, 1 mg/ml ….

For data set [2], the target named is human serum albumin (HSA) (Homo sapiens) (UniProt P02768). The data set can be described thus: flow cytometry. The conditions noted are these: N = artificial base F; HSA beads: DPBS + 5 mM Mg2+, room temperature, 1 h, beads blocked with BSA/yeast tRNA; cells: DPBS, 4.5 g/L glucose, 5 mM MgCl2, 0.1 mg/ml yeast tRNA, 1 mg/ml ….

In general, Kd refers to the free concentration of one partner at which half of the binding sites on the other are occupied at equilibrium, for simple one-to-one binding. Regarding “NNATCTAACTGCTGCGCCGCCGGGANANTANTGTACGGTTAGANN [Sgc8-F23]”, the Kd in the data set with PTK7 (on HCT116 cells) (N = artificial base F (3,5-bis(trifluoromethyl)benzene), 7 F) worked out at 17.1 nM; in data set [1] (5 mM Mg2+, in the SYL3C section printed as 191.8 nM, N = artificial base F (3,5-bis(trifluoromethyl)benzene), 7 F), 194 nM.

For the sequence “ATCTAACTGCTGCGCCGCCGGGAAAATACTGTACGGTTAGA [Sgc8]”, the dissociation constant (Kd) with PTK7 (on HCT116 cells) stood at 3.2 nM.

“CACTACAGAGGTTGCGTCTGTCCCACGTTGTCATGGGGGGTTGGCCTG [SYL3C]”: the equilibrium dissociation constant (Kd) with EpCAM (on HCT116 cells) was 321 nM.

On to “NNATCTAACTGCTGCGCCGCCGGGAAAATACTGTACGGTTAGANN [Sgc8-F20]”, for which the equilibrium dissociation constant (Kd) in data set [1] (N = artificial base F) worked out at 403 nM.

For the sequence “NNCACTACAGAGGTTGCGTCTGTCCCACGTTGTCATGGGGGGTTGGCCTGNN [SYL3C-F20]”, the dissociation constant Kd with EpCAM (on HCT116 cells) (N = artificial base F) is 369 nM; in data set [2], 1090 nM.
